Source: patent US20260242759A1, “GQ/11 Protein Peptidomimetics” (Vrije Universiteit Brussel, priority 2022, published 2026)
Positions of bridges follow the written chain, without caps; N, C: chain ends. Non-standard residues stand in square brackets, D forms with d. Residues, ends and D or L forms follow the SMILES beside them. Triazole bridges read from a SMILES are 1,4-linked. Lys(N3) = [N-]=[N+]=NCCCC[C@H](N)C(=O)O; Cha = N[C@@H](CC1CCCCC1)C(=O)O; Pra = C#CC[C@H](N)C(=O)O

Columns and labels:
MTT cytotoxicity assay = type: cell-based, human; conditions: human, HEK293 1C8 cells, 3 h 45 min, read-out: cell viability
Protocol: Cells were washed two times with PBS and incubated with 3-(4,5-dimethylthiazol-2-yl)-2,5-diphenyltetrazolium bromide (MTT) during 3 h, at 37° C. Afterwards, cells were washed once with PBS and then incubated for 10 min with DMSO. Plates were analysed with a Tecan Spark 10 M microplate reader.
An MTT assay was used to assess the cytotoxicity of the non-fluorescent Gq/11 peptidomimetics of Example 5. An MTT assay is a colorimetric test that evaluates the cell metabolic activity and reflects the cell viability.

[1] = tested on: HEK293 cells overexpressing the ghrelin receptor; assay: Fluorescence microscopy of cell permeability; type: cell-based, human; conditions: 5 μM, 3 h 45 min, 37° C.
Protocol: To visualise cell-penetration of the peptides, HEK293 1C8 cells were seeded in 12-well plates, covered with a coverslip, at 120,000 cells/well. After overnight incubation (37° C., 5% CO2), cells were washed with PBS and treated with the fluorescently labeled peptides for 2 h45. Next, BG-fluorescein was added to the mixture, for Snap tag labeling of the cell-surface GHSR. After incubation of 1 h the cells were washed four times with PBS. Cells were then fixed using 4% paraformaldehyde in PBS for 5 min and washed two times with PBS. Finally, Hoechst was diluted 1/1000 in PBS, added to the fixed cells during 10 min, and washed thrice with PBS.
The cells for permeabilization were first incubated with BG-fluorescein during 1 h, followed by four times washing with PBS. The cells were then fixed with 4% paraformaldehyde in PBS for 5 min washed twice. Afterwards, the cells were permeabilized with Triton 0.1% in PBS during 5 min and washed thrice. Finally, the cells were incubated for 3 h 45 with the peptide and washed three times before Hoechst was added for 10 min.
The SulfoCy5-labeled Gq/11 peptidomimetics of Example 5 were also analyzed by fluorescence microscopy to investigate their cell membrane permeability. HEK293 cells overexpressing the ghrelin receptor were seeded overnight on microscope slides. The cells were incubated with 5 μM of SulfoCy5-labeled Gq/11 peptidomimetics for 3 h 45 min at 37° C., followed by Hoechst staining for visualizing the nucleus. The cell membrane was visualized by staining the cell surface ghrelin receptors with fluorescein.

[2] = target: purified bimane labeled ghrelin receptor (human, cysmin mutant, in lipidated nanodiscs) (human) (UniProt Q92847); assay: cell-based or functional assay
[3] = target: T1, ghrelin receptor overexpressed on HEK293 cells (UniProt Q92847 1-366, limits assumed); assay: cell-based or functional assay
[4] = target: T2, full-length human muscarinic 1 receptor with a FLAG tag at the N-terminus (human, UniProt P11229 1-460); assay: cell-based or functional assay
T2 sequence: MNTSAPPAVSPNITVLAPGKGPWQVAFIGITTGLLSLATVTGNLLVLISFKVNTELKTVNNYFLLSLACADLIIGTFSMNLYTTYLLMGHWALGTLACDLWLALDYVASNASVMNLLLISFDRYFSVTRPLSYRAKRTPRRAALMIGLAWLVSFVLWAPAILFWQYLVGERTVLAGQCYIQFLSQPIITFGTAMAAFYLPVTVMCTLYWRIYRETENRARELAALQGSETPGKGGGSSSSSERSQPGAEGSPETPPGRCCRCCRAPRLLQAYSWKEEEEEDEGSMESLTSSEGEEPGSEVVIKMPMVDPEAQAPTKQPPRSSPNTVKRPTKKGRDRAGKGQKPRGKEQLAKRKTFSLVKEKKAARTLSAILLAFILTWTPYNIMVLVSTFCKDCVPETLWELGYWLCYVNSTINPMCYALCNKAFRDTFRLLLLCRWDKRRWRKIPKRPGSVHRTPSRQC

[5] = target: T1, ghrelin receptor overexpressed on …; assay: cell-based or functional assay; remark: listed apart in the source

Chain of purified bimane labeled ghrelin receptor (human, cysmin mutant, in lipidated nanodiscs) (human) (Q92847 other isoform, or with tags, fused parts or gaps mutant): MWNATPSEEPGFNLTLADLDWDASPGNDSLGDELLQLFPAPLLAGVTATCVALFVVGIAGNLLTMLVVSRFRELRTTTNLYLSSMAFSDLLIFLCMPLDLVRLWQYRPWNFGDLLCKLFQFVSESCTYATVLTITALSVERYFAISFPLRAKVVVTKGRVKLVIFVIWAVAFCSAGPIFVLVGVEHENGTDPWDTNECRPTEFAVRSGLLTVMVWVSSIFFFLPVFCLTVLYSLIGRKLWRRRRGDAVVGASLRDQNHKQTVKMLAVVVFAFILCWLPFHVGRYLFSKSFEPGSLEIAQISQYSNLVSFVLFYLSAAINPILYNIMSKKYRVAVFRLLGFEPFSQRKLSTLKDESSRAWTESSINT
T1 sequence (Q92847 whole entry): as the sequence (Q92847 other isoform, or with tags, fused parts or gaps mutant) above, with S146C, S304C counted along it

CC[C@H](C)[C@H](NC(=O)[C@@H]1CCCCn2cc(nn2)C[C@H](NC(=O)[C@H](C)NC(=O)[C@H](Cc2ccccc2)NC(=O)[C@H](CCCNC(=N)N)NC(=O)[C@H](CCCNC(=N)N)NC(=O)[C@H](Cc2c[nH]c3ccccc23)NC(=O)[C@H](CCCNC(=N)N)NC(=O)[C@H](CCCNC(=N)N)NC(=O)[C@H](Cc2c[nH]c3ccccc23)NC(=O)[C@H](Cc2c[nH]c3ccccc23)NC(=O)[C@H](CCCNC(=N)N)NC(=O)[C@@H](N)CCCNC(=N)N)C(=O)N[C@@H](C(C)C)C(=O)N[C@@H](CCCCN)C(=O)N[C@@H](CC(=O)O)C(=O)N1)C(=O)N[C@@H](CC(C)C)C(=O)N[C@@H](CCC(N)=O)C(=O)N[C@@H](CC(C)C)C(=O)N[C@@H](CC(N)=O)C(=O)N[C@@H](CC(C)C)C(=O)N[C@@H](CCCCN)C(=O)N[C@@H](CCC(=O)O)C(=O)N[C@@H](Cc1ccc(O)cc1)C(=O)N[C@@H](CC(N)=O)C(=O)N[C@@H](CC(C)C)C(=O)N[C@H](C(=O)O)C(C)C [SBL-GQ-25] (H-RRWWRRWRRFA[Pra]VKD[Lys(N3)]ILQLNLKEYNLV-OH; triazole 12-16)
viability at 5 µM (MTT cytotoxicity assay): ~90%
viability at 10 µM (MTT cytotoxicity assay): ~85%
viability at 40 µM (MTT cytotoxicity assay): ~50%

H-C(SulfoCy5)-Ahx-RRRRFAc[PraVKDAzk]ILQLNLKEYNLV-OH [SBL-GQ-22]
SulfoCy5-labeled peptide observed inside cells [1]: very little or no

H-C(SulfoCy5)-Ahx-RRWWRRWRRFAc[PraVKDAzk]ILQLNLKEYNLV-OH [SBL-GQ-24]
SulfoCy5-labeled peptide observed inside cells [1]: entered cells

dynorphin [reference compound]
SulfoCy5-labeled peptide observed inside cells [1]: very little or no

H-C(SulfoCy5)-Ahx-RRRRRRRRFAc[PraVKDAzk]ILQLNLKEYNLV-OH [SBL-GQ-23]
SulfoCy5-labeled peptide observed inside cells [1]: entered cells

CC[C@H](C)[C@H](NC(=O)[C@@H]1CCCCn2cc(nn2)C[C@H](NC(=O)[C@H](C)NC(=O)[C@H](Cc2ccccc2)NC(=O)[C@H](CCCNC(=N)N)NC(=O)[C@H](CCCNC(=N)N)NC(=O)[C@H](CCCNC(=N)N)NC(=O)[C@H](CCCNC(=N)N)NC(=O)[C@H](CCCNC(=N)N)NC(=O)[C@H](CCCNC(=N)N)NC(=O)[C@H](CCCNC(=N)N)NC(=O)[C@@H](N)CCCNC(=N)N)C(=O)N[C@@H](C(C)C)C(=O)N[C@@H](CCCCN)C(=O)N[C@@H](CC(=O)O)C(=O)N1)C(=O)N[C@@H](CC(C)C)C(=O)N[C@@H](CCC(N)=O)C(=O)N[C@@H](CC(C)C)C(=O)N[C@@H](CC(N)=O)C(=O)N[C@@H](CC(C)C)C(=O)N[C@@H](CCCCN)C(=O)N[C@@H](CCC(=O)O)C(=O)N[C@@H](Cc1ccc(O)cc1)C(=O)N[C@@H](CC(N)=O)C(=O)N[C@@H](CC(C)C)C(=O)N[C@H](C(=O)O)C(C)C [SBL-GQ-15] (H-RRRRRRRRFA[Pra]VKD[Lys(N3)]ILQLNLKEYNLV-OH; triazole 11-15)
viability at 5 µM (MTT cytotoxicity assay): ~90%
viability at 10 µM (MTT cytotoxicity assay): ~70%
viability at 40 µM (MTT cytotoxicity assay): ~50%

H-C(SulfoCy5)-Ahx-KKKFAc[PraVKDAzk]ILQLNLKEYNLV-OH [SBL-GQ-21]
SulfoCy5-labeled peptide observed inside cells [1]: very little or no

purified Gαqβ1γ2 heterotrimer
bimane maximum emission wavelength, with agonist JMV1843 [2]: 480 nm

H-RRWWRRWRRFA[Pra]VKD[Lys(N3)]ILQLNLKEYNLV-OH (triazole 12-16) [SBL-GQ-25]
EC50 (M) of the MK0677 agonist, IP-One Gq assay, SBL-GQ-25 5 µM, n = 1 [3]: 7.82e-10 M
EC50 (M) of the MK0677 agonist, IP-One Gq assay, SBL-GQ-25 5 µM, n = 2 [3]: 1.7e-10 M
EC50 (M) of the MK0677 agonist, IP-One Gq assay, SBL-GQ-25 10 µM, n = 1 [3]: 1.54e-09 M
EC50 (M) of the MK0677 agonist, IP-One Gq assay, SBL-GQ-25 10 µM, n = 2 [3]: 4.65e-10 M

Ac-KKKFA[Pra]VKD[Lys(N3)]ILQLNLKEYNLV-OH (triazole 6-10) [SBL-GQ-05]
IC50 (µM) of the agonist acetylcholine chloride for the M1 receptor in the presence of the peptidomimetic, RLA [4]: 330 µM
Shift (IC50 ratio without/with peptidomimetic), RLA [4]: 1
bimane emission as percent of the effect of the Gq protein, highest peptide concentrations [2]: 90%
bimane maximum emission wavelength, with agonist JMV1843 [2]: 478 nm
EC50 (M) of the MK0677 agonist, IP-One Gq assay, peptidomimetic at 10 µM, n = 1 [5]: 9.99e-10 M
EC50 (M) of the MK0677 agonist, IP-One Gq assay, peptidomimetic at 10 µM, n = 2 [5]: 1.53e-10 M
EC50 (M) of the MK0677 agonist, IP-One Gq assay, peptidomimetic at 10 µM, n = 3 [5]: 1.1e-10 M

H-RRRRRRRRFA[Pra]VKD[Lys(N3)]ILQLNLKEYNLV-OH (triazole 11-15) [SBL-GQ-15]
EC50 (M) of the MK0677 agonist, IP-One Gq assay, peptidomimetic at 10 µM, n = 1 [5]: 2.75e-10 M
EC50 (M) of the MK0677 agonist, IP-One Gq assay, peptidomimetic at 10 µM, n = 2 [5]: 1.07e-10 M
EC50 (M) of the MK0677 agonist, IP-One Gq assay, peptidomimetic at 10 µM, n = 3 [5]: 7.18e-11 M
EC50 (M) of the MK0677 agonist, IP-One Gq assay, SBL-GQ-15 5 µM, n = 1 [3]: 2.55e-10 M
EC50 (M) of the MK0677 agonist, IP-One Gq assay, SBL-GQ-15 5 µM, n = 2 [3]: 8.07e-11 M

Ac-KKKFA[Pra]VKD[Lys(N3)]ILQLNLKEYN[Cha]V-OH (triazole 6-10) [SBL-GQ-06]
IC50 (µM) of the agonist acetylcholine chloride for the M1 receptor in the presence of the peptidomimetic, RLA [4]: 54.4 µM
Shift (IC50 ratio without/with peptidomimetic), RLA [4]: 8
bimane maximum emission wavelength, with agonist JMV1843 [2]: 478 nm

B1: SBL-GQ-04 (peptide)
peptide: Ac-KKKFAAVKDTILQLNLKEYN[Cha]V-OH
SMILES: CC[C@H](C)[C@H](NC(=O)[C@@H](NC(=O)[C@H](CC(=O)O)NC(=O)[C@H](CCCCN)NC(=O)[C@@H](NC(=O)[C@H](C)NC(=O)[C@H](C)NC(=O)[C@H](Cc1ccccc1)NC(=O)[C@H](CCCCN)NC(=O)[C@H](CCCCN)NC(=O)[C@H](CCCCN)NC(C)=O)C(C)C)[C@@H](C)O)C(=O)N[C@@H](CC(C)C)C(=O)N[C@@H](CCC(N)=O)C(=O)N[C@@H](CC(C)C)C(=O)N[C@@H](CC(N)=O)C(=O)N[C@@H](CC(C)C)C(=O)N[C@@H](CCCCN)C(=O)N[C@@H](CCC(=O)O)C(=O)N[C@@H](Cc1ccc(O)cc1)C(=O)N[C@@H](CC(N)=O)C(=O)N[C@@H](CC1CCCCC1)C(=O)N[C@H](C(=O)O)C(C)C
IC50 (µM) of the agonist acetylcholine chloride for the M1 receptor in the presence of the peptidomimetic, RLA [4]: 213 µM
Shift (IC50 ratio without/with peptidomimetic), RLA [4]: 4
EC50 (M) of the MK0677 agonist, IP-One Gq assay, peptidomimetic at 10 µM, n = 1 [5]: 4.42e-10 M
EC50 (M) of the MK0677 agonist, IP-One Gq assay, peptidomimetic at 10 µM, n = 2 [5]: 9.46e-11 M
EC50 (M) of the MK0677 agonist, IP-One Gq assay, peptidomimetic at 10 µM, n = 3 [5]: 9.87e-11 M
EC50 (M) of the MK0677 agonist, IP-One Gq assay, SBL-GQ-04 5 µM, n = 1 [3]: 3.18e-10 M
EC50 (M) of the MK0677 agonist, IP-One Gq assay, SBL-GQ-04 5 µM, n = 2 [3]: 1.41e-10 M

Ac-KKKFN[Pra]CKD[Lys(N3)]ILQMNLREYNLV-OH (triazole 6-10) [SBL-GQ-11]
IC50 (µM) of the agonist acetylcholine chloride for the M1 receptor in the presence of the peptidomimetic, RLA [4]: 57.7 µM
Shift (IC50 ratio without/with peptidomimetic), RLA [4]: 7
bimane maximum emission wavelength, with agonist JMV1843 [2]: 478 nm

Ac-KKKFN[Pra]CKD[Lys(N3)]ILQMNLREYN[Cha]V-OH (triazole 6-10) [SBL-GQ-12]
IC50 (µM) of the agonist acetylcholine chloride for the M1 receptor in the presence of the peptidomimetic, RLA [4]: 13.7 µM
Shift (IC50 ratio without/with peptidomimetic), RLA [4]: 34
bimane maximum emission wavelength, with agonist JMV1843 [2]: 478 nm
